Test results: paper PMC9122904, “Insights into the client protein release mechanism of the ATP-independent chaperone Spy” (Nature Communications, 2022)
Residue numbers refer to the chain shown, from its start. In names and notes the source's numbering stands.

Key:
Test in all cases: BLI; Octet RED96; client biotinylated and loaded on streptavidin sensors; Spy or Spy variant in solution at 0.25, 0.5, 1, 1.5 and 2 μM; 40 mM HEPES, 150 mM NaCl, pH 7.5; Kd calculated as koff/kon
Conditions in all cases: both partners purified
Spy D26E [1] = biological target: T1, Spy D26E (UniProt P77754 24-161, D26E)
T1 construct: source: E. coli BL21 (DE3), purified (Ni-NTA, cation exchange, SEC); not shown: His6, N-terminal, cleaved; SUMO, N-terminal, cleaved
T1 sequence (looked up): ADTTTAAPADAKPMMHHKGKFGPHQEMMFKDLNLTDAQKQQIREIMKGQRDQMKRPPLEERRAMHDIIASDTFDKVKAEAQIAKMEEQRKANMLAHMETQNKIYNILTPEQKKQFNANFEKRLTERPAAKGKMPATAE

Spy D26K [2] = biological target: T2, Spy D26K (UniProt P77754 24-161, D26K)
T2 construct: source: E. coli BL21 (DE3), purified (Ni-NTA, cation exchange, SEC); not shown: His6, N-terminal, cleaved; SUMO, N-terminal, cleaved
T2 sequence (looked up): T1 sequence (looked up) with E26K

Spy D26R [3] = biological target: T3, Spy D26R (UniProt P77754 24-161, D26R)
T3 construct: source: E. coli BL21 (DE3), purified (Ni-NTA, cation exchange, SEC); not shown: His6, N-terminal, cleaved; SUMO, N-terminal, cleaved
T3 sequence (looked up): T1 sequence (looked up) with E26R

Spy D26E [4] = biological target: T1, Spy D26E; remark: listed apart in the source
Spy D26A = biological target: T4, Spy D26A (UniProt P77754 24-161, D26A)
T4 construct: source: E. coli BL21 (DE3), purified (Ni-NTA, cation exchange, SEC); not shown: His6, N-terminal, cleaved; SUMO, N-terminal, cleaved
T4 sequence (looked up): T1 sequence (looked up) with E26A

Spy D26K [5] = biological target: T2, Spy D26K; remark: listed apart in the source
Spy D26R [6] = biological target: T3, Spy D26R; remark: listed apart in the source
Spy_(R89D D26K) = biological target: T5, Spy_(R89D D26K) (UniProt P77754 24-161, D26K | R89D)
T5 construct: also called D26K R89D; source: E. coli BL21 (DE3), purified (Ni-NTA, cation exchange, SEC); not shown: His6, N-terminal, cleaved; SUMO, N-terminal, cleaved
T5 sequence (looked up): T1 sequence (looked up) with E26K, R89D
Outline: (§1)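 Association was recorded with an Octet RED96 as streptavidin sensors carrying client proteins, biotinylated with EZ-link NHS-biotin at a 1:1 molar ratio, sat in 40 mM HEPES, 150 mM NaCl, pH 7.5 with 0.25 to 2 μM of the analyte protein (0.25, 0.5, 1, 1.5 and 2 μM). Dissociation followed after transfer to analyte-free buffer. Both wavelength-shift phases were fitted in SigmaPlot 12.0 to obtain koff and the observed association rate, whose dependence on analyte concentration yielded kon, with Kd defined as koff divided by kon.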

Spy_(H96D) = biological target: T6, Spy_(H96D) (UniProt P77754 24-161, H96D)
T6 construct: source: E. coli BL21 (DE3), purified (Ni-NTA, cation exchange, SEC); not shown: His6, N-terminal, cleaved; SUMO, N-terminal, cleaved
T6 sequence (looked up): T1 sequence (looked up) with E26D, H96D
Outline: as §1

Spy_(K121D R122D) = biological target: T7, Spy_(K121D R122D) (UniProt P77754 24-161, K121D | R122D)
T7 construct: source: E. coli BL21 (DE3), purified (Ni-NTA, cation exchange, SEC); not shown: His6, N-terminal, cleaved; SUMO, N-terminal, cleaved
T7 sequence (looked up): T1 sequence (looked up) with E26D, K121D, R122D
Outline: as §1

B1: Im7 H40W L53A I54A (natural protein)
chain: MELKNSISDYTEAEFVQLLKEIEKENVAATDDVLDVLLEWFVKITEHPDGTDAAYYPSDNRDDSPEGIVKEIKEWRAANGKPGFKQG
modifications: biotin (EZ-link NHS-biotin, 1:1 molar ratio of biotin to protein)
notes: Im7 (colicin E7 immunity protein) with H40W L53A I54A; Spy was made with an N-terminal His6-SUMO tag that was cleaved; also called Im7AAW; partially folded client; source: purified by a similar procedure to Spy
Kd (Spy D26E [1]): 637 nM
Kd (Spy D26K [2]): 257 nM
Kd (Spy D26R [3]): 286 nM
koff (Spy D26E [4]): 0.196 s⁻¹
koff (Spy D26A): 0.0876 s⁻¹
koff (Spy D26K [5]): 0.0775 s⁻¹
koff (Spy D26R [6]): 0.0811 s⁻¹
koff (Spy_(R89D D26K)): 0.2 s⁻¹
koff (Spy_(H96D)): 0.42 s⁻¹
koff (Spy_(K121D R122D)): 0.46 s⁻¹
